# Article PMC9410871, “Structural basis of DNA packaging by a ring-type ATPase from an archetypal viral system” (Nucleic Acids Research, 2022)
# B1: HK97 portal (portal complex of the procapsid) (natural protein, bacteriophage HK97, UniProt P49859 1-424, looked up)
# chain: MEEPKYTIDLRTNNGWWARLKSWFVGGRLVTPNQGSQTGPVSAHGYLGDSSINDERILQISTVWRCVSLISTLTACLPLDVFETDQNDNRKKVDLSNPLARLLRYSPNQYMTAQEFREAMTMQLCFYGNAYALVDRNSAGDVISLLPLQSANMDVKLVGKKVVYRYQRDSEYADFSQKEIFHLKGFGFTGLVGLSPIAFACKSAGVAVAMEDQQRDFFANGAKSPQILSTGEKVLTEQQRSQVEENFKEIAGGPVKKRLWILEAGFSTSAIGVTPQDAEMMASRKFQVSELARFFGVPPHLVGDVEKSTSWGSGIEQQNLGFLQYTLQPYISRWENSIQRWLIPSKDVGRLHAEHNLDGLLRGDSASRAAFMKAMGESGLRTINEMRRTDNMPPLPGGDVAMRQAQYVPITDLGTNKEPRNNGA
# notes: Portal protein of bacteriophage HK97, within the procapsid; Seen only as part of the procapsid m4; source: E. coli 594 infected with HK97 amber mutant amC2; within purified procapsids; copies: 12
# Columns and labels:
# [1] = target: HK97 small terminase (TerS) protein GP1 (bacteriophage HK97); assay: SEC-MALS; TerS in solution; conditions not told in the main text
# [2] = target: HK97 small terminase (TerS) protein GP1 (bacteriophage HK97); assay: native MS; TerS buffer-exchanged into 200 mM ammonium acetate, pH 7.5; modified Q-Exactive Orbitrap, positive ion mode, static nanospray
# [3] = target: HK97 small terminase (TerS) protein GP1 (bacteriophage HK97); assay: crystal structure; TerS 22 mg/mL in 300 mM potassium glutamate, 20 mM HEPES pH 7.0; reservoir 9% PEG 3350, 0.1 M succinic acid pH 7.0; three subunits in the asymmetric unit around a crystallographic 3-fold axis
# [4] = target: the molecule itself; assay: cryo-EM structure; packaging reaction with 125 nM prohead, 125 nM ScaI-linearized pUC18 DNA, 1 uM TerL, 2 uM TerS, vitrified about 30 s after 1 mM ATP; 5-fold symmetry applied to resolve TerL, 6-fold to resolve the portal
Molecule,stoichiometry N [1],stoichiometry N [2],stoichiometry N [3],stoichiometry N [4]
HK97 small terminase (TerS) protein GP1 (natural protein),9,9,9,
B1,,,,12
